Legend:
[1] = target: Kappa opioid receptor (KOR) (Homo sapiens (Human)) (UniProt P41145); assay: cell-based or functional assay
[2] = target: Kappa opioid receptor (KOR) (Homo sapiens (Human)) (UniProt P41145); assay: HTRF Tag-Lite KOP ligand binding assay; competition against naltrindole (8 nM); Ki relative to Kd of naltrindole
[3] = target: Kappa opioid receptor (KOR) (Homo sapiens (Human)) (UniProt P41145); assay: HTRF Tag-Lite KOP ligand binding assay; competition against naltrindole (8 nM)
[4] = target: Delta opioid receptor (DOR); assay: cell-based or functional assay
Mu opioid receptor (MOR) = assay: cell-based or functional assay

Row | Activity (EC50, nM), cAMP assay [1] [nM] | Ki [2] [nM] | IC50 [3] [nM] | Log IC50 [3] | cAMP assay (ALPHAScreen), result at 1 µM peptide [1] | cAMP assay (ALPHAScreen), result at 10 µM peptide [1] | Substance | KOPr desensitisation in HEK293-KOPr cells: reduction in maximal cAMP response after 6 h pretreatment at 1 µM [1] [%] | Activity (EC50, nM), cAMP assay [4] [nM] | Activity (EC50, nM), cAMP assay (Mu opioid receptor (MOR)) [nM]
1 | 3.87 | 6.7 | 72.6 | -7.14 | – | – | SEQ ID NO. 24: NH2-Tyr-Sar-(4-Cl)Phe-Leu-Arg-DArg-C7H14-CONH2 (peptide) | – | – | –
2 | 8.4 | 2.8 | 30.2 | -7.52 | 34.9 | 40.3 | SEQ ID NO. 4: NH2-Tyr-Sar-(4-NO2)Phe-Leu-Arg-DArg-NH2 (peptide) | – | – | –
3 | – | – | – | – | – | – | SEQ ID NO. 20: NH2-Tyr-Sar-(4-Cl)Phe-Leu-Arg-DArg-Ile-Arg-NH2 (peptide) | 50 | – | –
4 | 31.1 | 180 | 1950 | -5.71 | – | – | SEQ ID NO. 19: NH2-Tyr-Sar-(4-NO2)Phe-Leu-NMA-NMA-NH2 (peptide) | – | – | –
5 | 1.77 | – | – | – | – | – | SEQ ID NO. 18: NH2-Tyr-Sar-(4-NO2)Phe-Leu-Arg-NMA-NH2 (peptide) | – | – | –

Row | Substance | Activity (EC50, nM), cAMP assay [1] [nM] | Ki [2] [nM] | IC50 [3] [nM] | Log IC50 [3] | cAMP assay (ALPHAScreen), result at 1 µM peptide [1] | cAMP assay (ALPHAScreen), result at 10 µM peptide [1] | KOPr desensitisation in HEK293-KOPr cells: reduction in maximal cAMP response after 6 h pretreatment at 1 µM [1] [%] | Activity (EC50, nM), cAMP assay [4] [nM] | Activity (EC50, nM), cAMP assay (Mu opioid receptor (MOR)) [nM]
6 | Dyn1-7 (SEQ ID NO. 38: Tyr-Gly-Gly-Phe-Leu-Arg-Arg) (peptide) | 1600 | – | – | – | – | – | – | 870 | 3740

Reference: patent US20240301023A1
